Laboratory results as given in article PMC7367873, “Dissecting the sequence determinants for dephosphorylation by the catalytic subunits of phosphatases PP1 and PP2A” (Nature Communications, 2020).

Key:
[1] = tested on: GFP-14-3-3β; test: GFP-14-3-3β co-IP with LC-MS/MS, untreated GFP-14-3-3β versus GFP control (14-3-3 interactome); type: binding, human
[2] = tested on: GFP-14-3-3β and its binding proteins; test: GFP-14-3-3β co-IP with LC-MS/MS label-free quantification, untreated versus PP1c-treated; design: species or system human
[3] = pairwise comparison untreated vs GFP
[4] = pairwise comparison PP1 vs untreated
[5] = untreated vs GFP, LFQ intensities, 3 replicates each
[6] = PP1 vs untreated, LFQ intensities, 3 replicates each

B1: ATP5O (protein, UniProt P48047 24-213, looked up)
ATP synthase peripheral stalk …: FAKLVRPPVQVYGIEGRYATALYSAASKQNKLEQVEKELLRVAQILKEPKVAASVLNPYVKRSIKVKSLNDITAKERFSPLTTNLINLLAENGRLSNTQGVVSAFSTMMSVHRGEVPCTVTSASPLEEATLSELKTVLKSFLSQGQVLKLEAKTDPSILGGMIVRIGEKYVDMSVKTKIQKLGRAMREIV
In the case of B1, the “Difference (log2), untreated vs GFP” value [1, 3] is reported as 0.8888 log2 and the “Difference (log2), PP1 vs untreated” value [2, 4] is reported as 0.2696 log2.

B2: ACADM (protein, UniProt P11310 26-421, looked up)
Medium-chain specific …: KANRQREPGLGFSFEFTEQQKEFQATARKFAREEIIPVAAEYDKTGEYPVPLIRRAWELGLMNTHIPENCGGLGLGTFDACLISEELAYGCTGVQTAIEGNSLGQMPIIIAGNDQQKKKYLGRMTEEPLMCAYCVTEPGAGSDVAGIKTKAEKKGDEYIINGQKMWITNGGKANWYFLLARSDPDPKAPANKAFTGFIVEADTPGIQIGRKELNMGQRCSDTRGIVFEDVKVPKENVLIGDGAGFKVAMGAFDKTRPVVAAGAVGLAQRALDEATKYALERKTFGKLLVEHQAISFMLAEMAMKVELARMSYQRAAWEVDSGRRNTYYASIAKAFAGDIANQLATDAVQILGGNGFNTEYPVEKLMRDAKIYQIYEGTSQIQRLIVAREHIDKYKN
B2 was tested, and the “Difference (log2), untreated vs GFP” value ([1]; log2 difference, pairwise comparison untreated vs GFP, label-free quantification, 3 replicates each) was -2.884 and the “Difference (log2), PP1 vs untreated” value ([2]; log2 difference, pairwise comparison PP1 vs untreated, label-free quantification, 3 replicates each) was 2.074.

B3: UPF1 (protein, UniProt Q92900 1-1129, looked up)
Regulator of nonsense …: MSVEAYGPSSQTLTFLDTEEAELLGADTQGSEFEFTDFTLPSQTQTPPGGPGGPGGGGAGGPGGAGAGAAAGQLDAQVGPEGILQNGAVDDSVAKTSQLLAELNFEEDEEDTYYTKDLPIHACSYCGIHDPACVVYCNTSKKWFCNGRGNTSGSHIVNHLVRAKCKEVTLHKDGPLGETVLECYNCGCRNVFLLGFIPAKADSVVVLLCRQPCASQSSLKDINWDSSQWQPLIQDRCFLSWLVKIPSEQEQLRARQITAQQINKLEELWKENPSATLEDLEKPGVDEEPQHVLLRYEDAYQYQNIFGPLVKLEADYDKKLKESQTQDNITVRWDLGLNKKRIAYFTLPKTDSGNEDLVIIWLRDMRLMQGDEICLRYKGDLAPLWKGIGHVIKVPDNYGDEIAIELRSSVGAPVEVTHNFQVDFVWKSTSFDRMQSALKTFAVDETSVSGYIYHKLLGHEVEDVIIKCQLPKRFTAQGLPDLNHSQVYAVKTVLQRPLSLIQGPPGTGKTVTSATIVYHLARQGNGPVLVCAPSNIAVDQLTEKIHQTGLKVVRLCAKSREAIDSPVSFLALHNQIRNMDSMPELQKLQQLKDETGELSSADEKRYRALKRTAERELLMNADVICCTCVGAGDPRLAKMQFRSILIDESTQATEPECMVPVVLGAKQLILVGDHCQLGPVVMCKKAAKAGLSQSLFERLVVLGIRPIRLQVQYRMHPALSAFPSNIFYEGSLQNGVTAADRVKKGFDFQWPQPDKPMFFYVTQGQEEIASSGTSYLNRTEAANVEKITTKLLKAGAKPDQIGIITPYEGQRSYLVQYMQFSGSLHTKLYQEVEIASVDAFQGREKDFIILSCVRANEHQGIGFLNDPRRLNVALTRARYGVIIVGNPKALSKQPLWNHLLNYYKEQKVLVEGPLNNLRESLMQFSKPRKLVNTINPGARFMTTAMYDAREAIIPGSVYDRSSQGRPSSMYFQTHDQIGMISAGPSHVAAMNIPIPFNLVMPPMPPPGYFGQANGPAAGRGTPKGKTGRGGRQKNRFGLPGPSQTNLPNSQASQDVASQPFSQGALTQGYISMSQPSQMSQPGLSQPELSQDSYLGDEFKSQIDVALSQDSTYQGERAYQHGGVTGLSQY
For B3, the “Difference (log2), untreated vs GFP” value [1, 3] was 0.2927 log2 and the “Difference (log2), PP1 vs untreated” value [2, 4] was 0.3073 log2.

B4: HLTF (protein, UniProt Q14527 1-1009, looked up)
Helicase-like transcription …: MSWMFKRDPVWKYLQTVQYGVHGNFPRLSYPTFFPRFEFQDVIPPDDFLTSDEEVDSVLFGSLRGHVVGLRYYTGVVNNNEMVALQRDPNNPYDKNAIKVNNVNGNQVGHLKKELAGALAYIMDNKLAQIEGVVPFGANNAFTMPLHMTFWGKEENRKAVSDQLKKHGFKLGPAPKTLGFNLESGWGSGRAGPSYSMPVHAAVQMTTEQLKTEFDKLFEDLKEDDKTHEMEPAEAIETPLLPHQKQALAWMVSRENSKELPPFWEQRNDLYYNTITNFSEKDRPENVHGGILADDMGLGKTLTAIAVILTNFHDGRPLPIERVKKNLLKKEYNVNDDSMKLGGNNTSEKADGLSKDASRCSEQPSISDIKEKSKFRMSELSSSRPKRRKTAVQYIESSDSEEIETSELPQKMKGKLKNVQSETKGRAKAGSSKVIEDVAFACALTSSVPTTKKKMLKKGACAVEGSKKTDVEERPRTTLIICPLSVLSNWIDQFGQHIKSDVHLNFYVYYGPDRIREPALLSKQDIVLTTYNILTHDYGTKGDSPLHSIRWLRVILDEGHAIRNPNAQQTKAVLDLESERRWVLTGTPIQNSLKDLWSLLSFLKLKPFIDREWWHRTIQRPVTMGDEGGLRRLQSLIKNITLRRTKTSKIKGKPVLELPERKVFIQHITLSDEERKIYQSVKNEGRATIGRYFNEGTVLAHYADVLGLLLRLRQICCHTYLLTNAVSSNGPSGNDTPEELRKKLIRKMKLILSSGSDEECAICLDSLTVPVITHCAHVFCKPCICQVIQNEQPHAKCPLCRNDIHEDNLLECPPEELARDSEKKSDMEWTSSSKINALMHALTDLRKKNPNIKSLVVSQFTTFLSLIEIPLKASGFVFTRLDGSMAQKKRVESIQCFQNTEAGSPTIMLLSLKAGGVGLNLSAASRVFLMDPAWNPAAEDQCFDRCHRLGQKQEVIITKFIVKDSVEENMLKIQNKKRELAAGAFGTKKPNADEMKQAKINEIRTLIDL
B4 was tested, and the “Difference (log2), untreated vs GFP” value [1, 5] was 1.079 log2 and the “Difference (log2), PP1 vs untreated” value [2, 6] was 0.3278 log2.

B5: RARS (protein, UniProt P54136 1-660, looked up)
Arginine--tRNA ligase, …: MDVLVSECSARLLQQEEEIKSLTAEIDRLKNCGCLGASPNLEQLQEENLKLKYRLNILRKSLQAERNKPTKNMINIISRLQEVFGHAIKAAYPDLENPPLLVTPSQQAKFGDYQCNSAMGISQMLKTKEQKVNPREIAENITKHLPDNECIEKVEIAGPGFINVHLRKDFVSEQLTSLLVNGVQLPALGENKKVIVDFSSPNIAKEMHVGHLRSTIIGESISRLFEFAGYDVLRLNHVGDWGTQFGMLIAHLQDKFPDYLTVSPPIGDLQVFYKESKKRFDTEEEFKKRAYQCVVLLQGKNPDITKAWKLICDVSRQELNKIYDALDVSLIERGESFYQDRMNDIVKEFEDRGFVQVDDGRKIVFVPGCSIPLTIVKSDGGYTYDTSDLAAIKQRLFEEKADMIIYVVDNGQSVHFQTIFAAAQMIGWYDPKVTRVFHAGFGVVLGEDKKKFKTRSGETVRLMDLLGEGLKRSMDKLKEKERDKVLTAEELNAAQTSVAYGCIKYADLSHNRLNDYIFSFDKMLDDRGNTAAYLLYAFTRIRSIARLANIDEEMLQKAARETKILLDHEKEWKLGRCILRFPEILQKILDDLFLHTLCDYIYELATAFTEFYDSCYCVEKDRQTGKILKVNMWRMLLCEAVAAVMAKGFDILGIKPVQRM
For B5, the “Difference (log2), untreated vs GFP” value [1, 3] was -0.5854 log2 and the “Difference (log2), PP1 vs untreated” value [2, 4] was 0.2613 log2.

B6: ERC1 (protein, UniProt Q8IUD2 1-1116, looked up)
ELKS/Rab6-interacting/CAST …: MYGSARSVGKVEPSSQSPGRSPRLPRSPRLGHRRTNSTGGSSGSSVGGGSGKTLSMENIQSLNAAYATSGPMYLSDHENVGSETPKSTMTLGRSGGRLPYGVRMTAMGSSPNIASSGVASDTIAFGEHHLPPVSMASTVPHSLRQARDNTIMDLQTQLKEVLRENDLLRKDVEVKESKLSSSMNSIKTFWSPELKKERALRKDEASKITIWKEQYRVVQEENQHMQMTIQALQDELRIQRDLNQLFQQDSSSRTGEPCVAELTEENFQRLHAEHERQAKELFLLRKTLEEMELRIETQKQTLNARDESIKKLLEMLQSKGLSAKATEEDHERTRRLAEAEMHVHHLESLLEQKEKENSMLREEMHRRFENAPDSAKTKALQTVIEMKDSKISSMERGLRDLEEEIQMLKSNGALSTEEREEEMKQMEVYRSHSKFMKNKVEQLKEELSSKEAQWEELKKKAAGLQAEIGQVKQELSRKDTELLALQTKLETLTNQFSDSKQHIEVLKESLTAKEQRAAILQTEVDALRLRLEEKETMLNKKTKQIQDMAEEKGTQAGEIHDLKDMLDVKERKVNVLQKKIENLQEQLRDKEKQMSSLKERVKSLQADTTNTDTALTTLEEALAEKERTIERLKEQRDRDEREKQEEIDNYKKDLKDLKEKVSLLQGDLSEKEASLLDLKEHASSLASSGLKKDSRLKTLEIALEQKKEECLKMESQLKKAHEAALEARASPEMSDRIQHLEREITRYKDESSKAQAEVDRLLEILKEVENEKNDKDKKIAELERQVKDQNKKVANLKHKEQVEKKKSAQMLEEARRREDNLNDSSQQLQDSLRKKDDRIEELEEALRESVQITAEREMVLAQEESARTNAEKQVEELLMAMEKVKQELESMKAKLSSTQQSLAEKETHLTNLRAERRKHLEEVLEMKQEALLAAISEKDANIALLELSSSKKKTQEEVAALKREKDRLVQQLKQQTQNRMKLMADNYEDDHFKSSHSNQTNHKPSPDQIIQPLLELDQNRSKLKLYIGHLTTLCHDRDPLILRGLTPPASYNLDDDQAAWENELQKMTRGQLQDELEKGERDNAELQEFANAILQQIADHCPDILEQVVNALEESS
For B6, the “Difference (log2), untreated vs GFP” value [1, 5] was 2.543 log2 and the “Difference (log2), PP1 vs untreated” value [2, 6] was 0.3326 log2.

B7: MSN (protein, UniProt P26038 2-577, looked up)
Moesin: PKTISVRVTTMDAELEFAIQPNTTGKQLFDQVVKTIGLREVWFFGLQYQDTKGFSTWLKLNKKVTAQDVRKESPLLFKFRAKFYPEDVSEELIQDITQRLFFLQVKEGILNDDIYCPPETAVLLASYAVQSKYGDFNKEVHKSGYLAGDKLLPQRVLEQHKLNKDQWEERIQVWHEEHRGMLREDAVLEYLKIAQDLEMYGVNYFSIKNKKGSELWLGVDALGLNIYEQNDRLTPKIGFPWSEIRNISFNDKKFVIKPIDKKAPDFVFYAPRLRINKRILALCMGNHELYMRRRKPDTIEVQQMKAQAREEKHQKQMERAMLENEKKKREMAEKEKEKIEREKEELMERLKQIEEQTKKAQQELEEQTRRALELEQERKRAQSEAEKLAKERQEAEEAKEALLQASRDQKKTQEQLALEMAELTARISQLEMARQKKESEAVEWQQKAQMVQEDLEKTRAELKTAMSTPHVAEPAENEQDEQDENGAEASADLRADAMAKDRSEEERTTEAEKNERVQKHLKALTSELANARDESKKTANDMIHAENMRLGRDKYKTLRQIRQGNTKQRIDEFESM
B7 was tested, and the “Difference (log2), untreated vs GFP” value [1, 3] was 0.7577 log2 and the “Difference (log2), PP1 vs untreated” value [2, 4] was 0.2864 log2.
